The source of these data is US20140348747A1.

For one assay, the target named is NLpep9-HT. In words: cell-based or functional assay.
The substance NLpoly D108N showed a luminescence after complementation (RLU(mutant)/RLU(WT)) of 2.08.

In turn, NLpoly V157D yielded a luminescence after complementation (RLU(mutant)/RLU(WT)) of 4.98.

NLpoly V58A: the luminescence after complementation (RLU(mutant)/RLU(WT)) is 1.88.

NLpoly R11N: the luminescence after complementation (RLU(mutant)/RLU(WT)) stood at 3.37.

The target in another assay is wild-type non-luminescent polypeptide (WT fragment of residues 1-156 of NanoLuc). In words: cell-based or functional assay.
HT-NLpep A169L yielded a luminescence after complementation (relative; unit not given) of 1.11.

Substance NLpep-HT V158S showed a luminescence after complementation (relative; unit not given) of 0.0838.

As for NLpep-HT C164K, the luminescence after complementation (relative; unit not given) amounted to 0.0005.

NLpep-HT I167R came in with a luminescence after complementation (relative; unit not given) of 0.0469.

As to NLpep-HT C164N, the luminescence after complementation (relative; unit not given) was 0.108.

In the case of HT-NLpep C164N, the luminescence after complementation (relative; unit not given) was 0.0874.

NLpep-HT C164A showed a luminescence after complementation (relative; unit not given) of 0.0858.

Substance HT-NLpep I167R displayed a luminescence after complementation (relative; unit not given) of 0.0464.

Take NLpep-HT C164F: the luminescence after complementation (relative; unit not given) turned out to be 13.3.

In turn, HT-NLpep I167V yielded a luminescence after complementation (relative; unit not given) of 0.877.

NLpep-HT A169R registered a luminescence after complementation (relative; unit not given) of 0.501.

Consider NLpep-HT C164Q, for which the luminescence after complementation (relative; unit not given) was 0.0211.

In turn, HT-NLpep V158I had a luminescence after complementation (relative; unit not given) of 0.608.

On to NLpep-HT G157P, for which the luminescence after complementation (relative; unit not given) is 0.0543.

HT-NLpep A169R showed a luminescence after complementation (relative; unit not given) of 0.985.

HT-NLpep A169N returned a luminescence after complementation (relative; unit not given) of 0.911.

With HT-NLpep A169E, the luminescence after complementation (relative; unit not given) was 0.846.

NLpep-HT W161V gave a luminescence after complementation (relative; unit not given) of 0.005.

For the substance HT-NLpep G157H, the luminescence after complementation (relative; unit not given) amounted to 0.938.

Substance HT-NLpep T159Q registered a luminescence after complementation (relative; unit not given) of 0.398.

HT-NLpep I167E came in with a luminescence after complementation (relative; unit not given) of 0.277.

The substance NLpep-HT R166K returned a luminescence after complementation (relative; unit not given) of 1.21.

In turn, NLpep-HT W161K came in with a luminescence after complementation (relative; unit not given) of 0.0008.

The substance HT-NLpep C164T came in with a luminescence after complementation (relative; unit not given) of 0.0116.

Substance NLpep-HT A169E showed a luminescence after complementation (relative; unit not given) of 0.789.

HT-NLpep G157E registered a luminescence after complementation (relative; unit not given) of 0.196.

On to NLpep-HT R166N, for which the luminescence after complementation (relative; unit not given) stood at 0.118.

Consider HT-NLpep W161T, for which the luminescence after complementation (relative; unit not given) came to 0.0028.

HT-NLpep L163T displayed a luminescence after complementation (relative; unit not given) of 0.0259.

HT-NLpep W161V: the luminescence after complementation (relative; unit not given) came to 0.0086.

The substance NLpep-HT G157H yielded a luminescence after complementation (relative; unit not given) of 0.573.

Substance HT-NLpep V158S showed a luminescence after complementation (relative; unit not given) of 0.0487.

Regarding NLpep-HT A169L, the luminescence after complementation (relative; unit not given) was 0.905.

Substance NLpep-HT W161E registered a luminescence after complementation (relative; unit not given) of 0.0012.

Substance HT-NLpep V158K gave a luminescence after complementation (relative; unit not given) of 0.077.

In turn, NLpep-HT V158I yielded a luminescence after complementation (relative; unit not given) of 1.6.

Consider NLpep-HT L163T, for which the luminescence after complementation (relative; unit not given) is 0.0262.

Regarding NLpep-HT C164M, the luminescence after complementation (relative; unit not given) turned out to be 3.26.

On to HT-NLpep L163K, for which the luminescence after complementation (relative; unit not given) worked out at 0.0885.

Turning to HT-NLpep R166N, the luminescence after complementation (relative; unit not given) was found to be 0.103.

NLpep-HT V158A returned a luminescence after complementation (relative; unit not given) of 0.144.

For the substance NLpep-HT W161T, the luminescence after complementation (relative; unit not given) stood at 0.01.

Regarding NLpep-HT I167F, the luminescence after complementation (relative; unit not given) was 0.179.

The substance NLpep-HT A169T gave a luminescence after complementation (relative; unit not given) of 1.37.

NLpep-HT C164L came in with a luminescence after complementation (relative; unit not given) of 1.02.

With HT-NLpep G157S, the luminescence after complementation (relative; unit not given) turned out to be 1.99.

Turning to HT-NLpep I167Q, the luminescence after complementation (relative; unit not given) was determined as 0.0178.

NLpep-HT L163Y: the luminescence after complementation (relative; unit not given) turned out to be 0.196.

The substance NLpep-HT A169N returned a luminescence after complementation (relative; unit not given) of 1.78.

With NLpep-HT C164T, the luminescence after complementation (relative; unit not given) amounted to 0.0084.

The substance NLpep-HT L163I showed a luminescence after complementation (relative; unit not given) of 0.292.

The substance NLpep-HT L163V had a luminescence after complementation (relative; unit not given) of 0.119.

Substance NLpep-HT W161F came in with a luminescence after complementation (relative; unit not given) of 0.0717.

Turning to NLpep-HT G157E, the luminescence after complementation (relative; unit not given) was found to be 1.45.

For NLpep-HT V158K, the luminescence after complementation (relative; unit not given) worked out at 0.192.

In the case of HT-NLpep G157N, the luminescence after complementation (relative; unit not given) is 0.641.

NLpep-HT W161Y returned a luminescence after complementation (relative; unit not given) of 0.215.

Turning to NLpep-HT G157C, the luminescence after complementation (relative; unit not given) is 0.0468.

As for HT-NLpep A169T, the luminescence after complementation (relative; unit not given) came to 0.945.

In turn, HT-NLpep R166K had a luminescence after complementation (relative; unit not given) of 1.09.

HT-NLpep T159K returned a luminescence after complementation (relative; unit not given) of 0.049.

In the case of NLpep-HT C164S, the luminescence after complementation (relative; unit not given) turned out to be 0.0202.

Substance NLpep-HT G157S gave a luminescence after complementation (relative; unit not given) of 1.72.

In turn, NLpep-HT I167Q gave a luminescence after complementation (relative; unit not given) of 0.117.

On to HT-NLpep L163Y, for which the luminescence after complementation (relative; unit not given) came out at 0.0512.

NLpep-HT T159K: the luminescence after complementation (relative; unit not given) stood at 0.0307.

Substance HT-NLpep I167F displayed a luminescence after complementation (relative; unit not given) of 0.283.

NLpep-HT G157D returned a luminescence after complementation (relative; unit not given) of 0.549.

As to HT-NLpep V158Q, the luminescence after complementation (relative; unit not given) was determined as 0.0445.

In the case of NLpep-HT T159Q, the luminescence after complementation (relative; unit not given) is 0.031.

Turning to NLpep-HT L163K, the luminescence after complementation (relative; unit not given) was determined as 0.0786.

Take HT-NLpep V158A: the luminescence after complementation (relative; unit not given) came out at 0.135.

As to NLpep-HT C164H, the luminescence after complementation (relative; unit not given) is 0.76.

As for NLpep-HT G157N, the luminescence after complementation (relative; unit not given) was found to be 3.31.

NLpep-HT I167E displayed a luminescence after complementation (relative; unit not given) of 0.244.

Regarding NLpep-HT C164Y, the luminescence after complementation (relative; unit not given) was 1.01.

HT-NLpep L163V came in with a luminescence after complementation (relative; unit not given) of 0.173.

The substance HT-NLpep T159V displayed a luminescence after complementation (relative; unit not given) of 0.566.

NLpep-HT V158Q registered a luminescence after complementation (relative; unit not given) of 0.0397.

HT-NLpep W161K yielded a luminescence after complementation (relative; unit not given) of 0.0002.

In the case of HT-NLpep G157D, the luminescence after complementation (relative; unit not given) amounted to 0.114.

NLpep-HT T159V gave a luminescence after complementation (relative; unit not given) of 0.0455.

In the case of NLpep-HT I167V, the luminescence after complementation (relative; unit not given) came to 1.08.

In another assay the target is NLpep53-HT. The assay is described as follows: cell-based or functional assay.
With NLpoly D108N, the luminescence after complementation (RLU(mutant)/RLU(WT)) came to 1.88.

NLpoly V157D returned a luminescence after complementation (RLU(mutant)/RLU(WT)) of 3.02.

NLpoly V58A gave a luminescence after complementation (RLU(mutant)/RLU(WT)) of 1.07.

Substance NLpoly R11N displayed a luminescence after complementation (RLU(mutant)/RLU(WT)) of 2.09.
